Measured values taken from patent US20180002420A1 (TRELLIS BIOSCIENCE, published 2018).

Experiments:
BSA = biological target: T1, BSA (UniProt P02769 25-607); test: adsorption ELISA on coated BSA control, serial dilutions; ND: not detectable
T1 construct: Control protein in the adsorption ELISA

[1] = biological target: T2, KIR2DL4 Extracellular Domain (UniProt Q99706 22-242, limits assumed); test: adsorption ELISA on coated KIR ECD, serial dilutions; ND: not detectable
T2 construct: extracellular domain; ECD either purchased or produced in house; also called KIR2DL4 ECD
T2 sequence (Q99706 22-242 limits assumed): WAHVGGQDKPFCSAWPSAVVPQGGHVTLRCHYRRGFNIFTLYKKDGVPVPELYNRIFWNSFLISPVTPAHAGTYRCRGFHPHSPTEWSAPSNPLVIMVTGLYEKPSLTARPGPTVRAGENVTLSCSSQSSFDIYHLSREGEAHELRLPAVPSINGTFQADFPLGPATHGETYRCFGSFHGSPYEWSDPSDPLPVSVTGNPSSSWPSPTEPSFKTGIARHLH
Description: (§1) The mAbs prepared in Example 1 were tested in adsorption ELISA using different KIR Extracellullar Domains (ECD), either purchased or produced in house. Serial dilutions allowed calculating binding affinities (listed below in Table 1 in nM); ND: not detectable.

[2] = biological target: T3, KIR3DL3 Extracellular Domain (UniProt Q8N743 26-322, limits assumed); test: as above
T3 construct: extracellular domain; ECD either purchased or produced in house; also called KIR3DL3 ECD
T3 sequence (Q8N743 26-322 limits assumed): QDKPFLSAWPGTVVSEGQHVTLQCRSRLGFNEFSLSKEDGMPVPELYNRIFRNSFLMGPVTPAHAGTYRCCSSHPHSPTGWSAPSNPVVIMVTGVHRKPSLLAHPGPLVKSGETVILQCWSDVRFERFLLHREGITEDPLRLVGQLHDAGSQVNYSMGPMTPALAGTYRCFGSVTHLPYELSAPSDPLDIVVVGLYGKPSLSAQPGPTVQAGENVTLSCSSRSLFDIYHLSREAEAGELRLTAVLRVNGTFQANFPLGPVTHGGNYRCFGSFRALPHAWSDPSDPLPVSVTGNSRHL
Description: as §1

[3] = biological target: T4, KIR2DL1 Extracellular Domain (UniProt P43626 22-245, limits assumed); test: as above
T4 construct: extracellular domain; ECD either purchased or produced in house; also called KIR2DL1 ECD
T4 sequence (P43626 22-245 limits assumed): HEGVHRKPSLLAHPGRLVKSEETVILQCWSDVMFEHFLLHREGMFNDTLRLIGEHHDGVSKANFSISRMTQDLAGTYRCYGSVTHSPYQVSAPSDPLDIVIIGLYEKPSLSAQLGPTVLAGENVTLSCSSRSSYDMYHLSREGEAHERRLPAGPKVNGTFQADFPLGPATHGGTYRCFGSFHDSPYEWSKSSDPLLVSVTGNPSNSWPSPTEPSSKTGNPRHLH
Description: as §1

[4] = biological target: T5, KIR3DL2 Extracellular Domain (UniProt P43630 22-340, limits assumed); test: as above
T5 construct: extracellular domain; ECD either purchased or produced in house; also called KIR3DL2 ECD
T5 sequence (P43630 22-340 limits assumed): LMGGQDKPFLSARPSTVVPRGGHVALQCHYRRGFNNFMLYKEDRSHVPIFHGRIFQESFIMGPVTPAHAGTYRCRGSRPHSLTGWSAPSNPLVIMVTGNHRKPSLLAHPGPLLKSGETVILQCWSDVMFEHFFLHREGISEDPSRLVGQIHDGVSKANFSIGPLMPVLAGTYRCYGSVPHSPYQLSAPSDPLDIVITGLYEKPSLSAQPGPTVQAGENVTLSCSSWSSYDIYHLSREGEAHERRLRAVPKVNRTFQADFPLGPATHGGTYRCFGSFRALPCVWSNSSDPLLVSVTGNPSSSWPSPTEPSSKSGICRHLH
Description: as §1

[5] = biological target: T6, KIR2DL2 Extracellular Domain (UniProt P43627 22-245, limits assumed); test: adsorption ELISA on coated KIR ECD, serial dilutions; printed as 'Affinity nM'
T6 construct: extracellular domain; ECD either purchased or produced in house; also called KIR2DL2 ECD
T6 sequence (P43627 22-245 limits assumed): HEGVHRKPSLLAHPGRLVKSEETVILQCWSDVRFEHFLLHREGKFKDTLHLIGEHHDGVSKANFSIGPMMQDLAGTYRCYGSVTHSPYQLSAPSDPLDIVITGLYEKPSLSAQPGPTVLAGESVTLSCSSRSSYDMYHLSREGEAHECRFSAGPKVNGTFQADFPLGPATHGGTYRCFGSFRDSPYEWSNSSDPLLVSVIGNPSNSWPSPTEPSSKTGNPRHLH
Description: as §1

[6] = biological target: T7, KIR2DS4 Extracellular Domain (UniProt P43632 22-245, limits assumed); test: as above
T7 construct: extracellular domain; ECD either purchased or produced in house; also called KIR2DS4 ECD
T7 sequence (P43632 22-245 limits assumed): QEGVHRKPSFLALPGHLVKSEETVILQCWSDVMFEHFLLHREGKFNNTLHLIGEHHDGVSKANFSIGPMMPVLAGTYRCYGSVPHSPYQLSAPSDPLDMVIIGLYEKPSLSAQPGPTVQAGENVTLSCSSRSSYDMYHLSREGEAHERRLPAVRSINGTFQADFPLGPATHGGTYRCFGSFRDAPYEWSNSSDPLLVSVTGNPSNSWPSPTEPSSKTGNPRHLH
Description: as §1

[7] = biological target: T8, KIR3DS1 Extracellular Domain (UniProt Q14943 22-340, limits assumed); test: as above
T8 construct: extracellular domain; ECD either purchased or produced in house; also called KIR3DS1 ECD
T8 sequence (Q14943 22-340 limits assumed): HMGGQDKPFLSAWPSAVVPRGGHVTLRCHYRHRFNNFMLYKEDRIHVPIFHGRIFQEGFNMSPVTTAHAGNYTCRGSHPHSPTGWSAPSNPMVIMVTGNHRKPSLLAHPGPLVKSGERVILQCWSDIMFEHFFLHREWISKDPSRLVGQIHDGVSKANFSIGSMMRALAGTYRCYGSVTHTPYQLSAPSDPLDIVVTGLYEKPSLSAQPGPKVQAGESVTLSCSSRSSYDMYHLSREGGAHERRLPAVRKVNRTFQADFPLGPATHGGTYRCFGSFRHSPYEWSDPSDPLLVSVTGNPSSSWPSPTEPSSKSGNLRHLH
Description: as §1

[8] = biological target: T9, KIR2DL3 Extracellular Domain (UniProt P43628 22-245, limits assumed); test: as above
T9 construct: extracellular domain; ECD either purchased or produced in house; also called KIR2DL3 ECD
T9 sequence (P43628 22-245 limits assumed): as the sequence (P43627 22-245 limits assumed) above, with R16P, E35Q, C148R, I200T, K216E counted along it
Description: as §1

[9] = biological target: T10, KIR3DL1 Extracellular Domain (UniProt P43629 22-340, limits assumed); test: as above
T10 construct: extracellular domain; ECD either purchased or produced in house; also called KIR3DL1 ECD
T10 sequence (P43629 22-340 limits assumed): as the sequence (Q14943 22-340 limits assumed) above, with V47I, G58S, M92V, R136K, W138G, S163P, R166L, L199P, L315P counted along it
Description: as §1

[10] = biological target: T8, KIR3DS1 Extracellular Domain; test: adsorption ELISA on coated KIR ECD, serial dilutions; ND: not detectable
Description: as §1

[11] = biological target: T10, KIR3DL1 Extracellular Domain; test: as above
Description: as §1

[12] = biological target: T4, KIR2DL1 Extracellular Domain; test: adsorption ELISA on coated KIR ECD, serial dilutions; printed as 'Affinity nM'
Description: as §1

[13] = biological target: T7, KIR2DS4 Extracellular Domain; test: adsorption ELISA on coated KIR ECD, serial dilutions; ND: not detectable
Description: as §1

[14] = biological target: T5, KIR3DL2 Extracellular Domain; test: adsorption ELISA on coated KIR ECD, serial dilutions; printed as 'Affinity nM'
Description: as §1

[15] = biological target: T2, KIR2DL4 Extracellular Domain; test: as above
Description: as §1

T1 sequence (P02769 25-607 limits assumed): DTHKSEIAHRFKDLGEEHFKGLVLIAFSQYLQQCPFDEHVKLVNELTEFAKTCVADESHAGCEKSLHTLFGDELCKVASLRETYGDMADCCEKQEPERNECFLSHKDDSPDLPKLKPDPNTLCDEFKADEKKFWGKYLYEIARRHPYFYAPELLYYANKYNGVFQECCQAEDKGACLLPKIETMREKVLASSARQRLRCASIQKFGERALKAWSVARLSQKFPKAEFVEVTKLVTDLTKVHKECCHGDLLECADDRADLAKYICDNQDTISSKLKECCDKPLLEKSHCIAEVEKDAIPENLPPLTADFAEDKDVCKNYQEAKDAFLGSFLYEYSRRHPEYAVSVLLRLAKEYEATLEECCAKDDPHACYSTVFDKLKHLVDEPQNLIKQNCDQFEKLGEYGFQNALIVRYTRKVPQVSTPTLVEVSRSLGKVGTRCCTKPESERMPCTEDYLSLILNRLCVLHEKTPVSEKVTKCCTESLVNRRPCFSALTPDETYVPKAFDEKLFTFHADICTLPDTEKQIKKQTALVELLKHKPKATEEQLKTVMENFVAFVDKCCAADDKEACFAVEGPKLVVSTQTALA

binding result (BSA) | binding result [1] | binding result [2] | binding result [3] | binding result [4] | Kd [5] [nM] | Kd [6] [nM] | Kd [7] [nM] | Kd [8] [nM] | Kd [9] [nM] | binding result [10] | binding result [11] | Kd [12] [nM] | binding result [13] | Kd [14] [nM] | Kd [15] [nM] | Binder
no binding | no binding | no binding | no binding | no binding | 12 | 55 | 54 | 38 | 10 | – | – | – | – | – | – | TRL8504 (antibody, V domains shown, Human variable regions cloned from donor B cells and fused recombinantly to an independently cloned generic constant region; Kappa light chain) VH: QVQLVESGGGVVRPGRSLRLSCAASGFTFNRFAMHWVRQAPGKGLEWVSVISYDGHNKYYIDSVKGRFTISRDDSKNTLHLQMNSLRPEDTAVYYCARARDDGRGIFDYWGQGILVTVSS VL: not shown
no binding | no binding | no binding | – | no binding | 0.018 | 2.6 | – | 0.005 | – | no binding | no binding | 0.026 | – | – | – | TRL8605 (antibody, V domains shown, Human variable regions cloned from donor B cells and fused recombinantly to an independently cloned generic constant region; Kappa light chain) VH: QVQLVQSGGGVVQPGRSLRLSCAVSGFTFSSYGMHWVRQAPGKGLEWVTIISYDGSNYDYADSVKGRFTISRDNSKNMVYLQMNSLRADDTAVYYCAKDGFDYWGQGTLVTVSS VL: DIVLTQSPDSLAVSLGERATINCKSSQSVLYSSNNRTYLAWFQQKSGQPPKLLIYWASTRQSGVADRFSGSGSGTDFTLTISSLQAEDVAVYYCQQYYTTPFTFGPGTRVDFKR
no binding | no binding | no binding | no binding | – | 40 | – | – | 0.1 | – | no binding | no binding | – | no binding | 67 | – | TRL8507 (antibody, V domains shown, Human variable regions cloned from donor B cells and fused recombinantly to an independently cloned generic constant region; Lambda light chain) VH: QVQLVESGGGVVQPGRSLRLSCAASGFTFSNYGMHWVRQAPGKGLEWVAVISFDGGNKYYADSVKGRFTISRDNSKNTLYLQMNSLRAEDTAVYYCAKSGYFDSSGYFYPYYYYGMDVWGQGTTVTVSS VL: DIELTQAPSVSVSPGQTARITCSGDALPKEYAYWYQQKPGQAPVLVIYKDSERPSGIPERFSGSSSGTTVTLTISGVQAEDEGDYYCQSADSSGTHVVFGGGTKLTVL
no binding | – | no binding | – | no binding | 1800 | – | 1800 | 79 | 1900 | – | – | 1100 | – | – | 2000 | TRL8608 (antibody, V domains shown, Human variable regions cloned from donor B cells and fused recombinantly to an independently cloned generic constant region; Kappa light chain) VH: QVQLVQSGAEVKKPGASVKISCKASGYTFTSYYMHWLRQAPGQGLEWMGVINPTDGSTSYAQKFHGRVTMTRVTSTSTVYMDLSSLRSDDTAMYYCAKAHIHAAEGEWFDPWGQGTLVTVSS VL: not shown
